The numbers were not newly measured in PMC7023894, which cites them from elsewhere.

The data set has as its target Ezrin FERM (Homo sapiens) (UniProt P15311).
UniProt P15311, sequence (P15311 1-299): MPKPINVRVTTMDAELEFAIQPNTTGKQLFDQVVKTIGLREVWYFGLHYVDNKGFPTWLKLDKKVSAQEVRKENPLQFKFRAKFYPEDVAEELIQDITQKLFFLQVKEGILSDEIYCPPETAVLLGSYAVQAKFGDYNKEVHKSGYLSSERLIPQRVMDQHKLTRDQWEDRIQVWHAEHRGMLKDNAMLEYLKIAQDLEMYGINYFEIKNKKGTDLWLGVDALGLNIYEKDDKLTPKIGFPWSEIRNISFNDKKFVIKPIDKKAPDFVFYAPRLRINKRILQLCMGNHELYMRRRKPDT

Usually Kd stands for a measure of binding affinity in units of concentration. “Transgelin-2 CLR region (from UniProt P37802)”: the Kd is 73.3 nM.
